Molecular target: the molecule itself
Assay: cryo-EM structure; purified PC2 185-723 in UDM detergent, incubated overnight at 4°C with 18:0-20:4 PI(4,5)P2 (1:20, tetramer:lipid) or 18:1 PI(3,5)P2 (1:40); C4 symmetry imposed in the reconstruction

B1: Polycystin-2, truncated construct hPC2: Pro185 - Asp723 (domain or fragment, human, UniProt Q13563 185-723, looked up)
chain: PRVAWAERLVRGLRGLWGTRLMEESSTNREKYLKSVLRELVTYLLFLIVLCILTYGMMSSNVYYYTRMMSQLFLDTPVSKTEKTNFKTLSSMEDFWKFTEGSLLDGLYWKMQPSNQTEADNRSFIFYENLLLGVPRIRQLRVRNGSCSIPQDLRDEIKECYDVYSVSSEDRAPFGPRNGTAWIYTSEKDLNGSSHWGIIATYSGAGYYLDLSRTREETAAQVASLKKNVWLDRGTRATFIDFSVYNANINLFCVVRLLVEFPATGGVIPSWQFQPLKLIRYVTTFDFFLAACEIIFCFFIFYYVVEEILEIRIHKLHYFRSFWNCLDVVIVVLSVVAIGINIYRTSNVEVLLQFLEDQNTFPNFEHLAYWQIQFNNIAAVTVFFVWIKLFKFINFNRTMSQLSTTMSRCAKDLFGFAIMFFIIFLAYAQLAYLVFGTQVDDFSTFQECIFTQFRIILGDINFAEIEEANRVLGPIYFTTFVFFMFFILLNMFLAIINDTYSEVKSDLAQQKAEMELSDLIRKGYHKALVKLKLKKNTVD
notes: Polycystin-2 (PC2, PKD2, TRPP1), human, residues Pro185 to Asp723; For cryo-EM the protein was treated with alpha-L-fucosidase, PNGase F and TEV protease (the tag stands after a TEV site); The forward primer carries an ATG before the Pro185 codon; Homo-tetramer; also called PKD2; TRPP1; not shown: His10, C-terminal, cleaved; FLAG, C-terminal, cleaved
stoichiometry N: 4
